The text below walks through data of the supplement of paper PMC10201428.

± gives the standard deviation of the averaged measurements.

In the data set the test system is VchCAST RNA-guided transposition machinery (E. coli BL21(DE3) host, lacZ target). The data set is described as follows: relative integration efficiency (T-RL orientation) vs wild-type transposon end (log2 (normalized fold change)); transposon end mutated: right end (5 bp flank + 75 bp right end); higher = more efficient transposition. The essentials: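 Relative integration efficiency is a fold change of output over input barcode abundance, normalised to reference barcodes and log-transformed. Input plasmids and genomic integration junctions were PCR-amplified and Illumina-sequenced from E. coli BL21(DE3) co-transformed with a T7-driven effector plasmid and pUC57 donor pools of 1549 left-end or 1849 right-end transposon variants. Plating was done with 0.1 mM IPTG at 37°C for 18 h, with two biological output replicates and four reference barcodes.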
Consider “ACATTTGTTGATACAACCATAAAGTGATATTTACACCCATAAATTGATATTGCTCACACCCATAAATTGATATTGCCTCTGATCATAGTCAGACCAACATTGCTACGACCCGTATTCGCACCGACAC”, for which the “relative integration efficiency (log2)” value is -0.333 ± 0.062.

With “ACATTTGTTGATACAACCATAAAATCTATATTACACCCATAAATTGATAATTATCACACCCATAAATTGATATTGCCTCTGATCATAGTCAGACCAACATTGCTACGACCCGTATTCGCACCGACAC”, the “relative integration efficiency (log2)” value is -1.55 ± 0.21.

For “ACATTTGTTGATACAACCATAAGTTGATATTTTCACCCATAAATTGATAATTATCACACCCATAAATTGATATTGCCTCTGATCATAGTCAGACCAACATTGCTACGACCCGTATTCGCACCGACAC”, the “relative integration efficiency (log2)” value came to 0.0993 ± 0.059.

On to “ACATTTGTTCATACAACCATAAAATGATAATTCACCCATAAATTGATAATTATCACACCCCAATTTAACTATAACGCTCTGATCATAGTCAGACCAACATTGCTACGACCCGTATTCGCACCGACAC”, for which the “relative integration efficiency (log2)” value was -2.26 ± 0.18.

“ACATTTGTTGATACACCCATAAATTGATAATTACAACCATATATTGATATCTCTCACAACCATAAAGTGATATTTACTCTGATCATAGTCAGACCAACATTGCTACGACCCGTATTCGCACCGACAC”: the “relative integration efficiency (log2)” value was -0.664 ± 0.34.

On to “ACATTTGTTCATACAACCATAAAATGATAATTACACCCATAAATTGATAATTATCACCCCCAATTTAACTATAACGCTCTGATCATAGTCAGACCAACATTGCTACGACCCGTATTCGCACCGACAC”, for which the “relative integration efficiency (log2)” value was -0.912 ± 0.46.

In the case of “ACATTTGTTGATACAACCAAAAAATGATAATTACACCCATAAATTGATAATGATGACACCGAATTTAACTATAACGCTCTGATCATAGTCAGACCAACATTGCTACGACCCGTATTCGCACCGACAC”, the “relative integration efficiency (log2)” value was -1.42 ± 0.27.

Turning to “ACATTTGTGGATACAACCCTAAAATGATAATTACACCCATAAATGGATAATTATCACACCCAATTTAACTATAACGCTCTGATCATAGTCAGACCAACATTGCTACGACCCGTATTCGCACCGACAC”, the “relative integration efficiency (log2)” value is -3.64 ± 0.39.

Regarding “ACATTTGTGGATACAACCCTAAAATGATAATTACACCCATAAATGGATCATTATCACACCCAATTTAACTATAACGCTCTGATCATAGTCAGACCAACATTGCTACGACCCGTATTCGCACCGACAC”, the “relative integration efficiency (log2)” value is -3.94 ± 0.38.

On to “AACGGTGTTGATACAACCATAAAATGATAATTACACCCATAAATTGATAATTATCACACCCATAAATTGATATTGCCTCTGATCATAGTCAGACCAACATTGCTACGACCCGTATTCGCACCGACAC”, for which the “relative integration efficiency (log2)” value was -0.153 ± 0.0083.

For “ACATTTGTTGATACAACCATAAAAGTCGCCGGCACAAACGCCCGGTCGCCGGCGACACAAACGCCCGGTCGCGGTAAGAGGATCATAGTCAGACCAACATTGCTACGACCCGTATTCGCACCGACAC”, the “relative integration efficiency (log2)” value is -5.34 ± 0.34.

With “ACATTTGTTGATACAACCATAAAATGATAATTACACCCATAAATTGATAATTATCACACCCATAAATTGATATTGCAGCTGATCATAGTCAGACCAACATTGCTACGACCCGTATTCGCACCGACAC”, the “relative integration efficiency (log2)” value worked out at 0.131 ± 0.028.

For “ACATTTGTTGATACAACCATAAAATGATAATTAATAATTATTTATAATCAGCAACTTAACCACAAACACCCATAAATTGATAATTATCAACAAACGCCCGGTCGCGGTACTCTGATCATAGTCAGAC”, the “relative integration efficiency (log2)” value is -3.5 ± 0.52.

With “ACATTTGTTGATACAACCATAAAATGATAATGACACCCATAAATTGATAATGATCACACCCATAAATTGATATTTCCTCTGATCATAGTCAGACCAACATTGCTACGACCCGTATTCGCACCGACAC”, the “relative integration efficiency (log2)” value was -0.238 ± 0.065.

For the sequence “ACATTTGTTGATACAACCAAAAAATGATAATTACACCCATAAATTGATAATTGTGACACCGAATTTAACTATAACGCTCTGATCATAGTCAGACCAACATTGCTACGACCCGTATTCGCACCGACAC”, the “relative integration efficiency (log2)” value was -1.12 ± 0.18.

Take “ACATTTGTTGATACAACCATAAAATCATAATTCACCCCTAAATTGATAATTATCACACCCACATTTAACTATAACGCTCTGATCATAGTCAGACCAACATTGCTACGACCCGTATTCGCACCGACAC”: the “relative integration efficiency (log2)” value was -6.26 ± 0.19.

Regarding “ACATTTGTTGATACAACCATAAAATGATAATTACACCCATAAATTGATAATTAAAACACCCATAAATTGATATTGCCTCTGATCATAGTCAGACCAACATTGCTACGACCCGTATTCGCACCGACAC”, the “relative integration efficiency (log2)” value is -0.399 ± 0.27.

For “ACATTTGTTGATACAACCATAAGTTGATATTTTCACCCATAAATTGATATTGCTCAGTGGGTATTTAACTATAACGCTCTGATCATAGTCAGACCAACATTGCTACGACCCGTATTCGCACCGACAC”, the “relative integration efficiency (log2)” value is -1.19 ± 0.12.

Turning to “ACATTTGTTGATACAACCATATTTAGATAATTACACCCATATTAAGATAATTATCACACCCATATTAAGATATTGCCTCTGATCATAGTCAGACCAACATTGCTACGACCCGTATTCGCACCGACAC”, the “relative integration efficiency (log2)” value was -2.27 ± 0.31.

Regarding “ACATTTGTTGATACAACCATAAAGTGATATTTACAACCATAAAGTGATATTTATCACAACCATAAAATGATAATTACTCTGATCATAGTCAGACCAACATTGCTACGACCCGTATTCGCACCGACAC”, the “relative integration efficiency (log2)” value is 0.0579 ± 0.16.

As for “ACATTTGTTGATACAACCATAAAATCATAATTACCCCCATAAATTGATAATTATCACACCCCATTTAACTATAACGCTCTGATCATAGTCAGACCAACATTGCTACGACCCGTATTCGCACCGACAC”, the “relative integration efficiency (log2)” value was -3.3 ± 0.19.

For “ACATTTGTTGATACAACCATAAAAGGATCATTACCCCCATCAATTGATAATTATCCCACCCAATTTAACTATAACGCTCTGATCATAGTCAGACCAACATTGCTACGACCCGTATTCGCACCGACAC”, the “relative integration efficiency (log2)” value was -3.59 ± 0.36.

Turning to “ACATTTGTAAAAAAAACCATACGTTGATTTTACGAAACCATACGCTGAAATAATCACAACCATAACTTGAAATTGCCTCTGATCATAGTCAGACCAACATTGCTACGACCCGTATTCGCACCGACAC”, the “relative integration efficiency (log2)” value was -6.63 ± 1.2.

For “ACATTTGTTGATACAACCATAAAATGATAATTACACCCATAAATTGATAATTATACCACCCATAAATTGATATTGCCTCTGATCATAGTCAGACCAACATTGCTACGACCCGTATTCGCACCGACAC”, the “relative integration efficiency (log2)” value is -0.694 ± 0.23.

Turning to “ACATTTGTTGATACAACCATAAAATGATAATTACACCCATAAATTGATAATTATCACCACCATAAATTGATATTGCCTCTGATCATAGTCAGACCAACATTGCTACGACCCGTATTCGCACCGACAC”, the “relative integration efficiency (log2)” value turned out to be 0.659 ± 0.12.

As for “ACATTTGTTGATACAACCATAAAATGATAATTACACCCATAAATTGATAATTATCACACCCATAAATTGATATTGCCTCTGATCATAGCAACCATAAAATGATAATTATCAGACCAAGCACCGACAC”, the “relative integration efficiency (log2)” value was -0.108 ± 0.26.

With “ACATTTGTTGATACAACCATAAAATGATAATCACCCATAAATTGATAATTATCACACCCATAAATTGATATTGCCTCTGATCATAGTCAGACCAACATTGCTACGACCCGTATTCGCACCGACACTG”, the “relative integration efficiency (log2)” value is -4.33 ± 0.1.

For the sequence “ACATTTGTTGATACAACCATAAAATGAGCCGTACACCCATAAATTGATAATTATCACACCCATAAATTGATATTGCCTCTGATCATAGTCAGACCAACATTGCTACGACCCGTATTCGCACCGACAC”, the “relative integration efficiency (log2)” value was -0.359 ± 0.21.

“ACATTTGTTGATACAACCATAAAAGGATAATTACCCCCATAAATTGATAATTATCCCACCCAATTTAACTATAACGCTCTGATCATAGTCAGACCAACATTGCTACGACCCGTATTCGCACCGACAC”: the “relative integration efficiency (log2)” value was -0.765 ± 0.32.

With “ACATTTGTTGATACAACCATAAAATGATAATTAATAATTATTTATAATCAGCAACTTAACCACAAACACCCATAAATTGATAATTATCACACCCATAAATTGATATTGCCTCTGATCATAGTCAGAC”, the “relative integration efficiency (log2)” value was -5.71 ± 1.2.

For “ACATTTGTTGATACAACCATAAAATGGTAATTACACCCATACATTGATAATTATCACACCCAATTTAACTATAACGCTCTGATCATAGTCAGACCAACATTGCTACGACCCGTATTCGCACCGACAC”, the “relative integration efficiency (log2)” value is -2.58 ± 0.27.

For the sequence “ACATTTGTTGATACAACCATAAAATGATAATTACACCCATAAATTGATAATTATCACACCCATAAATTGATATTGCCTCTGATAACTTCGTATAGGATACTTTATACGAAGTTATTCGCACCGACAC”, the “relative integration efficiency (log2)” value is -0.663 ± 0.27.
